The test system of one series is Ca^2+–CaM. Description: Gel mobility-shift assay with CaM. Type of series: binding, rat. The following applies: molar ratio of CaMB peptide to CaM for saturating gel-mobility shift; native PAGE, 0.1 mM CaCl2, ratios 0.5–4×, incubated ≥1 h at 4 °C; three replicate experiments. Here is the method:
(§1) We followed protocols that we have described previously in an analysis of CaM binding with snail or human L-type calcium channel peptides in the presence of 0.1 or 0.5 mM CaCl2-containing solution ([9]).
(§2) Rat CaM was purified using phenyl-Sepharose 6 Fast-Flow (High Sub) (GE Healthcare), packed to ∼10 ml volume, by gravity flow at 4 °C. Codon-optimized CaM was cloned in pET9d, a T7 Escherichia coli expression vector. CaM was transformed into BL21 DE3 E. coli and grown at 37 °C and 200 rpm to OD of 0.4–0.6 (for Luria Broth, LB) or 0.5–0.9 (for SuperBroth, SB), at which point samples were induced by 1 mM added isopropyl β-D-1-thiogalactopyranoside and grown for another 4 (for SB) to 6 (for LB) h. Robust expression of soluble CaM was confirmed by SDS-PAGE. Cells were collected by centrifugation at ∼4000 × g, then lysed in high-salt buffer (0.1 M Tris-Cl, pH 7.5, 0.5 M NaCl, 0.5 M ammonium sulfate, 1 mM DTT) using an Avestin Emulsiflex homogenizer at 15,000–20,000 p.s.i. with jacketed water cooling, through which the cells were passed ∼3× on average. The cell lysate was clarified by centrifugation at 20,000 rpm in an SS-34 rotor (∼50,000 × g) at 4 °C for 30 min. To the cleared lysate, CaCl2 was added to a final concentration of 10 mM. The lysate was then applied to the gravity phenyl-Sepharose column equilibrated with the same high salt buffer (and 1 mM CaCl2). […]

Series [1] is described as follows: Aggregation of peptides in buffers. Type of series: physicochemical. As to conditions: observation during CD (PBS: 10 mM sodium phosphate pH 7.3, 137 mM NaCl) and ITC sample preparation. As to the method:
CD measurements were performed using a Jasco-715 spectropolarimeter (Jasco Instruments, Easton, MD), using the following parameters: 250–190-nm range, 50 nm/min speed, with 1-s response time, 1-nm bandwidth, and 100-millidegree sensitivity at room temperature. 16–25 accumulations were gathered depending on signal quality. Recordings were made in a 1-mm cuvette, in 10 mM sodium phosphate buffer with 0.1 mM added CaCl2, and used as baseline, which was subtracted from each recording. For CaM and CaMB peptide spectra, the same solution of 10 μM CaM was scanned before stock (1 mM) peptide was added in incremental amounts before being scanned again. The resulting spectra were subtracted (e.g. CaM and CaMB peptide-CaM alone) to extract the spectrum corresponding to the change associated with adding the peptide. Every recording was an average of at least 16 accumulations and subsequently corrected for protein concentration (converted to units of mean residue ellipticity). These were smoothed and exported into ASCII format for analysis with Excel and either SOMCD or Dichroweb K2d algorithm (http://dichroweb.cryst.bbk.ac.uk)^6 ([92], [93]). […]
(§3) Heat gain or heat requirements in the sample cell (for exothermic binding or endothermic binding, respectively) correspond to the direction of the injection peaks measured in the isothermal titration calorimeter (MicroCal iTC200, Malvern Instruments, UK). […]

The target in series [2] is T1, C-CaM (C-lobe of CaM, 74-aa construct) (Homo sapiens, UniProt P0DP23).
T1 construct: partial CaMs: N-CaM(1–74), C-CaM(75–148); His tag; made in house; host or cells: bacteria (E. coli)
The series is described as follows: Isothermal titration calorimetry with C-lobe of CaM. As to conditions: ITC, one-set-of-sites fit, 25 °C, 10 mM HEPES pH 7.0, 0.1 mM CaCl2, mean of n = 3 (Fig. 6A), read-out: Binding affinity (Ka).
Description: (§4) We have used human CaM and associated CaM mutants that we have described before ([9]), CaM(1–44) and partial CaMs: N-CaM(1–74), C-CaM(75–148), and CaMs that simulate CaM binding in the absence of calcium, by substitution of glutamate residues in the two calcium-binding sites in the N-terminal lobe (CaM12) or C-terminal lobe (CaM34), or mutation of all four calcium-binding sites (CaM1234) of CaM. CaM–GFP used for Western blotting is a construct consisting of GFP fused to the C terminus of CaM expressed in pcDNA3.1 (Cell Signaling Technology) ([83]). EGFP expression vector was obtained by subcloning EGFP from pEGFP-C1 (BD Biosciences) into the multiple cloning site of pcDNA3.1. The CaM1234 overexpression construct contained bicistronic marker mRFP (to generate a red color) ([46]) to distinguish from the channel expression with bicistronic EGFP (to generate a green color). The CaM1234 overexpression construct also containing CaM shRNA knockdown includes two short hairpin sequences described above to knock down CaM (Calm1,2,3 genes) ([46][–][48]). […]
as §3

Series [3] deals with T2, Ca^2+–CaM (wild-type calmodulin) (Rattus norvegicus, UniProt P0DP29).
T2 construct: His tag; made in house; host or cells: E. coli BL21 DE3 (pET9d)
The series is described as follows: Isothermal titration calorimetry of CaMB peptides with wild-type CaM. As to conditions: ITC, one-set-of-sites fit, 25 °C, 10 mM HEPES pH 7.0, 0.1 mM CaCl2 (b23 says 0.5 mM CaCl2), mean of n = 3 (Fig. 6A), read-out: Binding affinity (Ka). As to the method:
as §1
as §2, with “average.” for “average. The cell lysate was clarified by centrifugation at 20,000 rpm in an SS-34 rotor (∼50,000 × g) at 4 °C for 30 min. To the cleared lysate, CaCl2 was added to a final concentration of 10 mM. The lysate was then applied to the gravity phenyl-Sepharose column equilibrated with the same high salt buffer (and 1 mM CaCl2).”
as §3

For series [4], the target named is T3, N-CaM (N-lobe of CaM, 74-aa construct) (Homo sapiens, UniProt P0DP23).
T3 construct: partial CaMs: N-CaM(1–74), C-CaM(75–148); His tag; made in house; host or cells: bacteria (E. coli)
The series is described as follows: Isothermal titration calorimetry with N-lobe of CaM. The following applies: ITC, one-set-of-sites fit, 25 °C, 10 mM HEPES pH 7.0, 0.1 mM CaCl2, mean of n = 3 (Fig. 6A), read-out: Binding affinity (Ka).
Description: as §4, §3

In series [5] the target is calmodulin (CaM), wild type, bacterially expressed (rat) (UniProt P0DP29). The series is described as follows: ITC; 10 mM HEPES pH 7.0, 0.1 mM CaCl2 (results: 0.5 mM CaCl2), 25 °C, one-set-of-sites model, mean of three replicates.
Series [6] concerns the target CaM_(1234), CaM with all four Ca^2+-binding sites mutated (human) (UniProt P0DP23). Described as above.
For series [7], the target named is calmodulin (CaM), wild type, bacterially expressed (rat) (UniProt P0DP29). Description: native gel or EMSA; gel-mobility shift of CaM with 0.5–4× molar ratios of peptide; native gels with 4 M urea, 0.1 mM CaCl2 in running buffer; incubation ≥1 h at 4 °C in 150 mM NaCl, 50 mM Tris-Cl pH 7.5, 1 mM CaCl2.
The target is the same in series [8]. Description: ITC; 10 mM HEPES pH 7.0, 0.1 mM CaCl2 (results: 0.5 mM CaCl2), 25 °C, one-set-of-sites model, mean of three replicates. The source holds these as a separate data set.
Series [9] concerns the target C-CaM(75–148), C-terminal lobe of CaM (human) (UniProt P0DP23). The description is as above.

Where two headings read alike, the source gives them in different places. No end group written: not given here.

Consider YEEIFQYVCHILRKAKRRALGLYQAL [Cav3.3], for which the “[CaMB Peptide] for Complete shift” value with Ca^2+–CaM is given as > 4.0 x. In [1], the aggregation entry was “severe aggregation issues in PBS”.

Take YEELLKYLVYILRKAARRLAQVSRAA [Cav3.1]: the “[CaMB Peptide] for Complete shift” value in the series on Ca^2+–CaM was 1.5 x. Also, in series [1], the aggregation entry was “severe aggregation issues in PBS”.

On to YEELLKYVGHIFRKVKRRSLRLYARW [Cav3.2], for which the Kd in series [2] is 691 nM; in series [3], 187 nM; in series [4], 31.1 nM.

YSELLKLVAQVYRRVKRKVIKTYYKT [LCav3]: the Kd in [3] amounted to 12.4 nM.

Regarding “human Cav3.1 CaMB peptide (26-mer gating brake peptide)”, the Kd in [5] was 42.7 nM; in series [6], 543 nM; in [8], 36 nM. In addition, the stoichiometry N in series [5] is 1. Moreover, the CaMB peptide to CaM ratio required for a saturating gel-mobility shift (× (peptide to CaM ratio)) in series [7] worked out at 1.5.

In the case of “human Cav3.2 CaMB peptide (26-mer gating brake peptide)”, the stoichiometry N in series [5] came to 1. In addition, the Kd in [9] came to 690 nM; in [8] it was 196 nM. Further, the CaMB peptide to CaM ratio required for a saturating gel-mobility shift (× (peptide to CaM ratio)) in series [7] turned out to be 1.5.

“human Cav3.3 CaMB peptide (26-mer gating brake peptide)”: in series [5], the Kd is 383 nM and the stoichiometry N was determined as 1. In series [7], the CaMB peptide to CaM ratio required for a saturating gel-mobility shift (× (peptide to CaM ratio)) is > 4.

In series [5], “snail LCav3 CaMB peptide (26-mer gating brake peptide)” came in with a stoichiometry N of 1. In series [6], this substance showed a fold reduced affinity compared with wild-type CaM of 349 fold. Besides, the CaMB peptide to CaM ratio required for a saturating gel-mobility shift (× (peptide to CaM ratio)) in series [7] is 1. For the same substance, the Kd in series [8] turned out to be 10 nM.
